We go through eleven molecules from PMC3526301.

The labels stand for the following.
B1: TBV-08 (clone 8) (structured_DNA)
DNA: AGCAGCACAGAGGTCAGATGGGTTGGTGTGGTTGGTGAGACCTTGCATGCGACTTGGTGAGCACGTGAGAAGTCCGTGGTAGGGCAGGTTGGGGTGACTCCTATGCGTGCTACCGTGAA
B2: TBV-08 without primer sites (structured_DNA)
DNA: GGTTGGTGTGGTTGGTGAGACCTTGCATGCGACTTGGTGAGCACGTGAGAAGTCCGTGGTAGGGCAGGTTGGGGTGACT
B3: clone 7 (structured_DNA)
DNA: AGCAGCACAGAGGTCAGATGGGTTGGTGTGGTTGGCTCTGATAACCCGGGGCTGTGGTGCGCCAGGTAGGAGTCCGTGGTAGGGCAGGTTGGGGTGACTCCTATGCGTGCTACCGTGAA
B4: clone 5 (structured_DNA)
DNA: AGCAGCACAGAGGTCAGATGGGTTGGTGTGGTTGGCATTTTGACCGAATGACGTTAGCAAAATATGTTAGAGTCCGTGGTAGGGCAGGTTGGGGTGACTCCTATGCGTGCTACCGTGAA
B5: clone 6 (structured_DNA)
DNA: AGCAGCACAGAGGTCAGATGGGTTGGTGTGGTTGGCGAGGACGCTGTGTGCGCTTCGAGGGCCTAGAAGGAGTCCGTGGTAGGGCAGGTTGGGGTGACTCCTATGCGTGCTACCGTGAA
B6: clone 3 (structured_DNA)
DNA: AGCAGCACAGAGGTCAGATGGGTTGGTGTGGTTGGTGAGTCGACTGTGTGCCTCAAGTAGAACGTAGGTGAGTCCGTGGTAGGGCAGGTTGGGGTGACTCCTATGCGTGCTACCGTGAA
B7: clone 4 (structured_DNA)
DNA: AGCAGCACAGAGGTCAGATGGGTTGGTGTGGTTGGCTGGTCTGGGGGCGTTTACTGGGCGCGCATTTTAAAGTCCGTGGTAGGGCAGGTTGGGGTGACTCCTATGCGTGCTACCGTGAA
B8: clone 2 (structured_DNA)
DNA: AGCAGCACAGAGGTCAGATGGGTTGGTGTGGTTGGCTGATACCGGAAGGGGTGTGTGTAGCGCGGTTGAGAGTCCGTGGTAGGGCAGGTTGGGGTGACTCCTATGCGTGCTACCGTGAA
B9: clone 1 (structured_DNA)
DNA: AGCAGCACAGAGGTCAGATGGGTTGGTGTGGTTGGAGCGGACTTTACCTGTGTCAGCTGCGGGGGCCGCAAGTCCGTGGTAGGGCAGGTTGGGGTGACTCCTATGCGTGCTACCGTGAA
B10: clone 9 (structured_DNA)
DNA: AGCAGCACAGAGGTCAGATGGGTTGGTGTGGTTGGCATTCGTAACTATGGGGTTCCTGTATTGGTATAGGAGTCCGTGGTAGGGCAGGTTGGGGTGACTCCTATGCGTGCTACCGTGAA
B11: clone 10 (structured_DNA)
DNA: AGCAGCACAGAGGTCAGATGGGTTGGTGTGGTTGGTTTGCCGATGTGTGGACAGCATGTGGGGTAGAGCGAGTCCGTGGTAGGGCAGGTTGGGGTGACTCCTATGCGTGCTACCGTGAA

In one series the target is T1, human alpha-thrombin (Homo sapiens, UniProt P00734;P00734 315-363;364-622). Description: bead-based fluorescence binding; apparent Kd; 50 mM Tris, 100 mM NaCl, 1 mM MgCl2, 5 mM KCl, 1 mM CaCl2, 0.01% Tween 20, pH 7.5 (selection buffer), 1 h room temperature, wa.
Consider B1, for which the Kd is 0.0081 nM.

Another series has as its target T1, human alpha-thrombin. The experiment in a line: bead-based fluorescence binding; apparent Kd; Figure S7 legend gives 430 pM; 50 mM Tris, 100 mM NaCl, 1 mM MgCl2, 5 mM KCl, 1 mM CaCl2, 0.01% Tween 20, pH 7.5 (selection buffer), 1 h room temperature, wa.
On to B2, for which the Kd was determined as 0.44 nM.

A further series addresses T1, human alpha-thrombin. Description: bead-based fluorescence binding; 50 pM aptamer; 50 mM Tris, 100 mM NaCl, 1 mM MgCl2, 5 mM KCl, 1 mM CaCl2, 0.01% Tween 20, pH 7.5 (selection buffer), 1 h room temperature, wa.
In the case of B3, the binding result was “binds”.

Turning to B4, the binding result was “binds”.

On to B5, for which the binding result is “binds”.

Regarding B6, the binding result is on record as “binds”.

As to B7, the binding result is “binds”.

Take B8: the binding result is recorded as “binds”.

Consider B9, for which the binding result is on record as “binds”.

For B10, the binding result is on record as “binds”.

For B11, the binding result is on record as “binds”.
